According to paper PMC5085265:

Columns and labels:
[1] = target: ^C38/C81/C96M1 (variant lacking the hydrophobic mutations) (UniProt P0ABE7)
[2] = target: ^C38/C81/C96R1 (triple Cys mutant of the cytochrome cb562 variant RIDC1); test: AUC
[3] = target: ^C38/C81/C96R1 (triple Cys mutant of the cytochrome cb562 variant RIDC1)

Row | yield of the tetrameric species [1] | stoichiometry N [2] | yield of the tetrameric species [3] | yield of the tetrameric species with 1.5-fold molar excess of Zn2+ [3] | Substance
1 | 16% | – | – | – | ^C38/C81/C96M1 (variant lacking the hydrophobic mutations) (from UniProt P0ABE7 23-128)
2 | – | 4 | 47% | 53% | ^C38/C81/C96R1 (triple Cys mutant of the cytochrome cb562 variant RIDC1)
